Data published in patent US10689628B2, “Method of making variant LovD polypeptides” (THE REGENTS OF THE UNIVERSITY OF CALIFORNIA, priority 2009, dated 2020).
Several values for one entry are separate records, joined by “and”; a condition that tells them apart may be missing. Equal values may be shown once. Entries after “also recorded” stand apart in the source; their conditions may differ.

Experiments:
[1] = molecular target: T1, LovD (Aspergillus terreus, UniProt Q9Y7D1); assay: Initial velocities of thioester substrates with pure LovD; assay type: biochemical; conditions: 1 mM MJ, 4 mM thioester substrate, 10 uM pure LovD, 50 mM HEPES, pH 7.9
T1 construct: made in house; host or cells: E. coli BL21(DE3)/pAW31

[2] = Native gel / SDS-PAGE of LovD proteins (oligomer, insoluble protein); assay type: physicochemical; conditions: for native gel: oligomer / monomer / stability (in words): DTT fixed at 2 mM
Method: FIG. 2. (a) SDS-PAGE gel LovD protein (WT) from E. coli BL21(DE3)/pAW31; (b) native gel of LovD protein (WT) and A1-A8 respectively, DTT was fixed at 2 mM for all samples.
LovD protein was purified to homogeneity by one step Ni-NTA column (FIG. 2a). […] The disulfide bonds between the proteins are spurious for protein crystallization because the monomer and oligomer are different species (see, e.g. Nemoto et al., 2006; J Appl Physiol 100(5):1688-91). One of our purposes was to remove the intermolecular disulfide bonds. By replacing the cysteine residues with alanine, we hope the resultant LovD mutant can keep the acyl-transferase activity while breaking the intermolecular disulfide bonds. […] We reasoned that the solubility of LovD may be changed when the intermolecular disulfide bonds between wild type LovD was eliminated (see, e.g. Lindberg et al., M. 2004; Proc Natl Acad Sci USA 101(45):15893-8).
We ran the native gel of all the mutant proteins together with the wild type LovD protein (FIG. 2b).

[3] = test system: MJ acid and DMB-S-MMP; assay: Kinetic assay of LovD wild type and mutants towards MJ acid and DMB-S-MMP; assay type: biochemical
Method: Dimethyl sulfoxide (DMSO) was added to a final concentration of 10% to facilitate the solubilization of DMB-S-MMP. To compare the turnover rate of all mutants and the wild type protein, the MJ acid concentration was set at 1 mM and the DMB-S-MMP was set at 2 mM, the protein concentration was fixed at 10 uM, after the reaction was performed at room temperature for 2 hours, the reaction was quenched by adding EA/2% TFA. The organic phase was dried and redissolved in ACN for HPLC analysis.
The concentration of DMB-S-MMP was fixed at 2 mM and MJ acid concentration was varied from 0.25 mM to 2.0 mM. […] For the rest LovD mutant proteins, we only checked the conversion of one time point.
To obtain KM values for MJA and kcat, the DMB-SMMP concentration was fixed at 2 mM, while the concentration of MJA was varied from 0.25 to 5 mM. To obtain KM values for DMB-SMMP and kcat, the MJA concentration was fixed at 2 mM, while the concentration of DMB-SMMP was varied from 0.5 to 5 mM. Dimethyl sulfoxide (DMSO) was added to a final concentration of 10% to facilitate the solubilization of DMB-SMMP. At different time points of the kinetic assay, an aliquot of the reaction mixture was removed, quenched with 1% TFA and extracted with EA containing 1% acetic acid. The organic phase was separated, dried, resolubilized by acetonitrile (ACN) and analyzed by a Beckman Gold HPLC using a reverse phase C18 column (Alltech Apollo 5μ, 150 mm×4.6 mm) and a linear gradient: 60% ACN in water (0.1% trifluoroacetic acid (TFA)) to 95% ACN in water (0.1% TFA) for 10 min, 1 mL/min. Conversion of MJA to SVA was measured by integration of the peaks at 238 nm.

[4] = test system: E. coli YT2; assay: Whole-cell biocatalysis, MJ acid and DMB-S-MMP to simvastatin acid (Example 1); conditions: for time to convert 15 mM MJ acid into simvastatin acid: whole cell, culture concentrated 10 times, 18 mM DMB-S-MMP; for whole cell activity compared to the wild type (in words): 8 hours conversion, alanine scanning mutants
Method: Whole cell biocatalytic activities based on the conversion from MJ acid and DMB-S-MMP (gray column) and soluble protein expression level comparison between the wild type LovD and the mutants (black column). For the whole cell activity, the LB culture was concentrated 10 times to mimic high density fermentation, 15 mM MJ acid and 18 mM DMB-S-MMP were used to compare the conversion. The conversion based on 8 hours was used to compare the whole cell activity between the wild type LovD and the mutants. The wild type LovD conversion was normalized to 100%, the data points are averaged values of two runs.
The LovD wild type and all mutants were cultured side-by-side for comparison. A single colony of the freshly transformed strains was used to inoculate a 5 ml LB culture supplemented with 35 mg/L kan and grown overnight at 37° C. The next morning, 100 μl of the overnight culture (0.2%) was inoculated into 50 ml LB medium with Kan. When OD600 reached 0.4˜0.6, 0.1 mM IPTG was added to the culture and expression of LovD was performed at 20° C. for 16 hrs. To mimic the high density fermentation conditions, the cells were concentrated 10-fold before addition of substrates. A 14 ml aliquot of the culture was collected by centrifugation (4° C., 4000 g, 10 min). The cell pellet was gently resuspended in 1330 ml of the supernatant, followed by addition of 70 ml of a MJ acid stock solution (300 mM in water) to make final concentration 15 mM. The concentrated culture was then resuspended and separated into seven 200 μl samples, 1 μl of pure DMB-S-MMP was added to each sample (final concentration ˜20 mM). The cultures were then shaken at 300 rpm at room temperature. At each time point, a total extraction was performed by adding 10 μl of 20% SDS to completely lyse the cells, followed by liquid—liquid extraction with 500 μl EA/2% TFA. The organic phase was removed, evaporated, and redissolved in 500 μl ACN for HPLC analysis.
We then tested the in vivo activity of the nine mutants in comparison to the wild type LovD. Both the mutants and the wild type LovD strains were grown in LB media, expressed and concentrated 10 times to mimic the high density fermentation after 16 hours expression at 20° C. Both MJ acid and DMB-S-MMP were added to final 15 mM and 18 mM respectively to start the reaction. At 8 hours, 100 μl sample culture was taken out to check the total conversion from MJ acid to simvastatin acid.

[5] = test system: E. coli YT2; assay: Whole-cell biocatalysis activity of LovD G0 and directed-evolution mutants (SVA synthesis)
Method: Wild type LovD and all mutants were cultured in parallel for comparison. A single colony of the freshly transformed YT2 competent cells was used to inoculate a 5 mL LB culture supplemented with 35 mg/L kanamycin. Following overnight growth at 37° C., 100 μl of the culture was inoculated into 50 mL LB medium supplemented with 35 mg/L kanamycin. When OD600 reached 0.4˜0.6, 0.1 mM IPTG was added to the cultures and expression of all LovD variants was performed at 25° C. for 16 hr. To mimic the high density fermentation conditions, the cells were then concentrated 10-fold before addition of substrates. A 10 ml aliquot of each culture was collected by centrifugation (4° C., 2,000 g, 10 min). The cell pellet was gently resuspended in 1 ml of the medium supernatant, followed by addition of 70 μl of MJA (300 mM stock) to a final concentration of 15 mM. The concentrated culture was then divided into seven 200 μl aliquots and 1 μl of pure DMB-SMMP was added to each sample to a final concentration of 20 mM. The small cultures were then shaken at 300 rpm at 25° C. At each time point, a complete extraction of one culture aliquot was performed by adding 10 μl of 20% SDS for cells lysis, followed by extraction with 500 μl ethyl acetate containing 1% trifluoroacetic acid TFA. The organic phase was removed, evaporated, and redissolved in 500 μl acetonitrile for HPLC analysis. The whole-cell activity was determined by fitting the linear regions of the conversion time course plot.
Parent LovD G0 and all mutants were cultured in parallel for comparison. A single colony of the freshly transformed YT2 competent cells was used to inoculate a 5 mL LB culture supplemented with 35 mg/L kanamycin. Following overnight growth at 37° C., 100 μl of the culture was inoculated into 50 mL LB medium supplemented with 35 mg/L kanamycin. When OD600 reached 0.4˜0.6, 0.1 mM IPTG was added to the cultures and expression of all LovD variants was performed at 25° C. for 16 hr. To mimic the high density fermentation conditions, the cells were then concentrated 10-fold before addition of substrates. A 10 ml aliquot of each culture was collected by centrifugation (4° C., 2,000 g, 10 min). The cell pellet was gently resuspended in 1 ml of the medium supernatant, followed by addition of 70 μl of MJA (300 mM stock) to a final concentration of 15 mM. The concentrated culture was then divided into seven 200 μl aliquots and 1 μl of pure DMB-SMMP was added to each sample to a final concentration of 20 mM. The small cultures were then shaken at 300 rpm at 25° C. At each time point, a complete extraction of one culture aliquot was performed by adding 10 μl of 20% SDS for cells lysis, followed by extraction with 500 μl ethyl acetate containing 1% trifluoroacetic acid TFA. The organic phase was removed, evaporated, and redissolved in 500 μl acetonitrile for HPLC analysis. The whole-cell activity was determined by fitting the linear regions of the conversion time course plot.

[6] = Soluble LovD protein expression level (Ni-NTA purification, Bradford assay)
Method: Each mutant was transformed into E. coli YT2 strain and selected by Kanamycin (Kan). The transformant was grown in 500 ml LB-Kan media at 37° C. to OD600 0.4˜0.6, then 0.1 mM IPTG was added to induce protein expression at 20° C. for 16 hours. Cells were collected by centrifugation, resuspended in 30 ml Buffer A (50 mM Tris-HCl, pH 8.0, 2 mM 2 mM EDTA), and lysed by sonication. Cell debris and insoluble proteins were removed by centrifugation (16,000 g, 4° C., 1 h). To the cleared lysate, 2 ml of Ni-NTA resin (Qiagen) was added. Each mutant was purified using a step gradient of buffer A with increasing concentration of imidazole. Pure (>95%) LovD proteins were eluted in buffer A containing 250 mM imidazole, and then buffer exchanged into buffer A without imidazole. Glycerol was added to a final concentration of 10%, the proteins were aliquoted, and flash frozen.
All nine mutants and the wild type LovD proteins were purified at the same time and under the same conditions. The proteins were purified from 50 ml LB culture. LovD was eluted in the last fraction which contains 250 mM imidazole. The concentration of the last fraction was determined by Bradford Assay using BSA as the standard.
Each expression plasmid encoding LovD mutant was transformed into E. coli BL21(DE3). The transformant was cultured in 50 mL LB medium containing 35 mg/L Kan at 37° C. to optical density (OD600) value of 0.4˜0.6. Protein expression was induced with 0.1 mM IPTG and the subsequent expression was performed at 25° C. for 16 h. Cells were collected by centrifugation (2,000 g, 4° C., 15 min), resuspended in 7 mL Buffer A (50 mM Tris-HCl, pH 8.0, 2 mM DTT, 2 mM EDTA), and lysed by sonication. Cell debris and insoluble proteins were removed by centrifugation (20,000 g, 4° C., 1 h). To the cleared cell lysate, 0.5 mL of Ni-NTA resin (Qiagen, Valencia, Calif.) was added to each sample. […] The protein concentrations were qualitatively assessed by SDS-PAGE and quantitatively determined by the Bradford protein assay using bovine serum albumin (BSA) as the standard.

[7] = DMB-S-MMP fixed at 2 mM, MJ acid 0.25 mM to 2.0 mM

Q: With CCC(C)(C)C(=O)SCCCC(=O)OC [DMB-S-MMB, dimethylbutyryl-S-methyl mercaptobutyrate] as the molecule, how does the “Initial Velocity (ki)” value [1] read?
A: The value was 0.78 min⁻¹.

Q: With CCC(C)(C)C(=O)SCCC(=O)O [DMB-S-MPA] as the molecule, how does the “Initial Velocity (ki)” value [1] read?
A: The value was 0.08 min⁻¹.

Q: For CCC(C)(C)C(=O)SCCNC(C)=O [DMB-S-NAC, α-dimethylbutyryl-SNAC], which “Initial Velocity (ki)” value [1] is on record?
A: Its value is 0.02 min⁻¹.

Q: For CCOC(=O)CCSC(=O)C(C)(C)CC [DMB-S-EMP, dimethylbutyryl-S-ethyl mercaptopropionate], which “Initial Velocity (ki)” value [1] is on record?
A: Its value is 0.70 min⁻¹.

Q: Which “Initial Velocity (ki)” value [1] does the source give for CCC(C)(C)C(=O)SCC(=O)OC [DMB-S-MTG, dimethylbutyryl-S-methyl thioglycolate] here?
A: The value was 0.03 min⁻¹.

B1: wild type LovD: A. terreus LovD acyltransferase polypeptide, SEQ ID NO: 1 (protein, listed as Aspergillus terreus)
chain: MGSIIDAAAAADPVVLMETAFRKAVKSRQIPGAVIMARDCSGNLNYTRCFGARTVRRDECNQLPPLQVDTPCRLASATKLLTTIMALQCMERGLVDLDETVDRLLPDLSAMPVLEGFDDAGNARLRERRGKITLRHLLTHTSGLSYVFLHPLLREYMAQGHLQSAEKFGIQSRLAPPAVNDPGAEWIYGANLDWAGKLVERATGLDLEQYLQENICAPLGITDMTFKLQQRPDMLARRADQTHRNSADGRLRYDDSVYFRADGEECFGGQGVFSGPGSYMKVLHSLLKRDGLLLQPQTVDLMFQPALEPRLEEQMNQHMDASPHINYGGPMPMVLRRSFGLGGIIALEDLDGENWRRKGSLTFGGGPNIVWQIDPKAGLCTLAFFQLEPWNDPVCRDLTRTFEHAIYAQYQQG
Q: With B1 as the molecule, how does the “fraction of LovD protein forming oligomer” value ([2]; native gel, even at high DTT concentration) read?
A: Its value is roughly 20%.

Q: What about the “fraction of expressed LovD protein insoluble” value ([2]; overexpressed in E. coli) of the same molecule?
A: The value was “more than 50%”.

Q: What about the Km [3, 7] of the same molecule?
A: Its Km is 640 µM.

Q: And the kcat [3, 7]?
A: The kcat was 0.62 min⁻¹.

Q: And the kcat ([3]; FIG. 1 legend, MJ acid and DMB-S-MMP to simvastatin)?
A: The kcat was 0.6 min'.

Q: What about the “time to convert 15 mM MJ acid into simvastatin acid” value [4] of the same molecule?
A: The value was 12 h.

B2: A9: LovD C395A mutant (protein, UniProt Q9Y7D1 1-413, looked up, variant C395A)
Monacolin J acid …: MGSIIDAAAAADPVVLMETAFRKAVKSRQIPGAVIMARDCSGNLNYTRCFGARTVRRDECNQLPPLQVDTPCRLASATKLLTTIMALQCMERGLVDLDETVDRLLPDLSAMPVLEGFDDAGNARLRERRGKITLRHLLTHTSGLSYVFLHPLLREYMAQGHLQSAEKFGIQSRLAPPAVNDPGAEWIYGANLDWAGKLVERATGLDLEQYLQENICAPLGITDMTFKLQQRPDMLARRADQTHRNSADGRLRYDDSVYFRADGEECFGGQGVFSGPGSYMKVLHSLLKRDGLLLQPQTVDLMFQPALEPRLEEQMNQHMDASPHINYGGPMPMVLRRSFGLGGIIALEDLDGENWRRKGSLTFGGGPNIVWQIDPKAGLCTLAFFQLEPWNDPVARDLTRTFEHAIYAQYQQG
Q: Which results are given for B2?
A: native gel: oligomer / monomer / stability (in words) [2]: no soluble proteins at all; whole cell activity compared to the wild type (in words) [4]: no activity

B3: A1N3: LovD double mutant C40A/C60N, starting point (generation zero) of directed evolution (protein, UniProt Q9Y7D1 1-413, looked up, variant C40A C60N)
Monacolin J acid …: MGSIIDAAAAADPVVLMETAFRKAVKSRQIPGAVIMARDASGNLNYTRCFGARTVRRDENNQLPPLQVDTPCRLASATKLLTTIMALQCMERGLVDLDETVDRLLPDLSAMPVLEGFDDAGNARLRERRGKITLRHLLTHTSGLSYVFLHPLLREYMAQGHLQSAEKFGIQSRLAPPAVNDPGAEWIYGANLDWAGKLVERATGLDLEQYLQENICAPLGITDMTFKLQQRPDMLARRADQTHRNSADGRLRYDDSVYFRADGEECFGGQGVFSGPGSYMKVLHSLLKRDGLLLQPQTVDLMFQPALEPRLEEQMNQHMDASPHINYGGPMPMVLRRSFGLGGIIALEDLDGENWRRKGSLTFGGGPNIVWQIDPKAGLCTLAFFQLEPWNDPVCRDLTRTFEHAIYAQYQQG
Q: What does the source list for B3?
A: faster than the single mutant A1 and N3 ([4]; whole cell time course): about 20%; time to convert 15 mM MJ acid into simvastatin acid [4]: ~8 h; whole cell SVA production rate ([5]; 25° C.): ~1.7 mM per hour; whole cell activity when expressed at 32° C. (in words) ([5]; 32° C.): did not show any activity; whole-cell conversion rate ([5]; normalized to 1 in FIG. 13): 1.7 mM/h

B4: GX12: LovD mutant with six mutations: C40A, C60N, A86V, D12G, G275S and A190T (protein, UniProt Q9Y7D1 1-413, looked up, variant C40A C60N A86V D12G G275S A190T)
Monacolin J acid …: MGSIIDAAAAAGPVVLMETAFRKAVKSRQIPGAVIMARDASGNLNYTRCFGARTVRRDENNQLPPLQVDTPCRLASATKLLTTIMVLQCMERGLVDLDETVDRLLPDLSAMPVLEGFDDAGNARLRERRGKITLRHLLTHTSGLSYVFLHPLLREYMAQGHLQSAEKFGIQSRLAPPAVNDPGAEWIYGTNLDWAGKLVERATGLDLEQYLQENICAPLGITDMTFKLQQRPDMLARRADQTHRNSADGRLRYDDSVYFRADGEECFGGQGVFSSPGSYMKVLHSLLKRDGLLLQPQTVDLMFQPALEPRLEEQMNQHMDASPHINYGGPMPMVLRRSFGLGGIIALEDLDGENWRRKGSLTFGGGPNIVWQIDPKAGLCTLAFFQLEPWNDPVCRDLTRTFEHAIYAQYQQG
Q: For B4, which “improvement of the kcat/Km value compared to wild type enzyme” value [3] is on record?
A: The value was 2.83 fold.

Q: And the “improvement of the soluble expression level compared to wild type enzyme” value [6]?
A: The value was 2.3 fold.

Q: What about the “improvement in whole-cell activity compared to wild type enzyme” value ([5]; 25° C.) of the same molecule?
A: Its value is 7.5 fold.

B5: A1: LovD C40A mutant (protein, UniProt Q9Y7D1 1-413, looked up, variant C40A)
Monacolin J acid …: MGSIIDAAAAADPVVLMETAFRKAVKSRQIPGAVIMARDASGNLNYTRCFGARTVRRDECNQLPPLQVDTPCRLASATKLLTTIMALQCMERGLVDLDETVDRLLPDLSAMPVLEGFDDAGNARLRERRGKITLRHLLTHTSGLSYVFLHPLLREYMAQGHLQSAEKFGIQSRLAPPAVNDPGAEWIYGANLDWAGKLVERATGLDLEQYLQENICAPLGITDMTFKLQQRPDMLARRADQTHRNSADGRLRYDDSVYFRADGEECFGGQGVFSGPGSYMKVLHSLLKRDGLLLQPQTVDLMFQPALEPRLEEQMNQHMDASPHINYGGPMPMVLRRSFGLGGIIALEDLDGENWRRKGSLTFGGGPNIVWQIDPKAGLCTLAFFQLEPWNDPVCRDLTRTFEHAIYAQYQQG
Q: What does the source list for B5?
A: native gel: oligomer / monomer / stability (in words) [2]: slightly more monomers; also recorded: slightly less oligomer; Km [3, 7]: 680 µM; kcat [3, 7]: 0.62 min⁻¹; solubility more than the wild type ([6]; purified from 50 ml LB culture, Bradford): 28%; whole cell activity higher than the wild type ([4]; based on 8 hours conversion, wild type normalized to 100%): ~25% and 31%

B6: A3: LovD C60A mutant (protein, UniProt Q9Y7D1 1-413, looked up, variant C60A)
Monacolin J acid …: MGSIIDAAAAADPVVLMETAFRKAVKSRQIPGAVIMARDCSGNLNYTRCFGARTVRRDEANQLPPLQVDTPCRLASATKLLTTIMALQCMERGLVDLDETVDRLLPDLSAMPVLEGFDDAGNARLRERRGKITLRHLLTHTSGLSYVFLHPLLREYMAQGHLQSAEKFGIQSRLAPPAVNDPGAEWIYGANLDWAGKLVERATGLDLEQYLQENICAPLGITDMTFKLQQRPDMLARRADQTHRNSADGRLRYDDSVYFRADGEECFGGQGVFSGPGSYMKVLHSLLKRDGLLLQPQTVDLMFQPALEPRLEEQMNQHMDASPHINYGGPMPMVLRRSFGLGGIIALEDLDGENWRRKGSLTFGGGPNIVWQIDPKAGLCTLAFFQLEPWNDPVCRDLTRTFEHAIYAQYQQG
Q: With B6 as the molecule, how does the “native gel: oligomer / monomer / stability (in words)” value [2] read?
A: Its value is “almost all monomers; also recorded: eliminated most of the oligomer”.

Q: What about the Km [3, 7] of the same molecule?
A: The Km was 660 µM.

Q: And the kcat [3, 7]?
A: Its kcat is 0.64 min⁻¹.

Q: What about the “whole cell activity compared to the wild type (in words)” value [4] of the same molecule?
A: The value was “slightly higher activity”.
